We go through six molecules from patent US20170210813A1 (Regeneron, published 2017).

Test [1] concerns the target full length human PDGFR-beta on HEK293 cells (human, UniProt P09619 33-1106). Briefly: cell-based or functional assay.
Test [2] concerns the target T1, hPDGFRb.mmh (human, UniProt P09619 33-531).
T1 construct: Soluble monomeric construct; also called soluble human PDGFR-beta.mmh
Briefly: blocking ELISA, biot-hPDGFRb.mmh to coated PDGF-BB. On the procedure:
The equilibrated PDGFR-beta/antibody solutions were added to ligand-coated plates, allowed to incubate for 1 hr, and washed. Levels of bound biot-hPDGFR-beta.mmh were detected using HRP conjugated streptavidin. Data were analyzed using Prism software and IC₅₀ values were calculated as the amount of antibody required to achieve 50% reduction of hPDGFR-beta-mmh bound to ligand. Maximum blocking values were also calculated and reflect the ability of the antibody to block relative to baseline. The absorbance measured at the constant amount of 250 pM biot-hPDGFR-beta-mmh on the dose curve is defined as 0% blocking and the absorbance with no added PDGFR-beta is defined as 100%. The absorbance of the wells containing the highest antibody concentration determined the maximum blocking percent.

The target of test [3] is T2, human PDGFRb.mFc (human).
T2 construct: Soluble dimeric construct with mouse Fc; also called hPDGFRb.mFc; soluble human PDGFR-beta.mFc
T2 chain: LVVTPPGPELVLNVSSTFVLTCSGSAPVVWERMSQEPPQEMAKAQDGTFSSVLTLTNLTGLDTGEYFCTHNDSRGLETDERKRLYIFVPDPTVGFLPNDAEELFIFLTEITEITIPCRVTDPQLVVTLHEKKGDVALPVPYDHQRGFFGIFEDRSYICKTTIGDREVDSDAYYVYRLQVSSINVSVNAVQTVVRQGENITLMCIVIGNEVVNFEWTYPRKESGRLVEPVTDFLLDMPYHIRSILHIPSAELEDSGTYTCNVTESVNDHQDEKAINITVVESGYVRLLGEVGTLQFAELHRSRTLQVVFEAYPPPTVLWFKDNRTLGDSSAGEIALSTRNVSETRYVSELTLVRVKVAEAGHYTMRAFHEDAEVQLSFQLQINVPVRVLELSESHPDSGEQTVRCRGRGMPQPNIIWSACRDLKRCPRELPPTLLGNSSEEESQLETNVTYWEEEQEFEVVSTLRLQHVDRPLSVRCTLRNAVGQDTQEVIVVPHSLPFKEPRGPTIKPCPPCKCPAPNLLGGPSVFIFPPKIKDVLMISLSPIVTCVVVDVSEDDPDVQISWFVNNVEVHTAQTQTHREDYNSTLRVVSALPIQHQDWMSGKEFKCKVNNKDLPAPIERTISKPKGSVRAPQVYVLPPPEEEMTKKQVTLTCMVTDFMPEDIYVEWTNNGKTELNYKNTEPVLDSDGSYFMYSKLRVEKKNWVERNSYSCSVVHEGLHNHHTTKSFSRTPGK
Briefly: SPR, mAb captured, 25 C. The protocol:
(§1) Antibodies, expressed as either mouse Fc (prefix H1M; H2M) or human Fc (prefix H4H), were captured on their respective anti-Fc sensor surfaces (Mab capture format). […] Kinetic association (kₐ) and dissociation (kd) rate constants were determined by processing and fitting the data to a 1:1 binding model using Scrubber 2.0 curve fitting software.

Test [4] concerns the target T3, Macaca fascicularis PDGFRb.mmh (Macaca fascicularis).
T3 construct: Soluble monomeric construct; also called mfPDGFRb.mmh
T3 chain: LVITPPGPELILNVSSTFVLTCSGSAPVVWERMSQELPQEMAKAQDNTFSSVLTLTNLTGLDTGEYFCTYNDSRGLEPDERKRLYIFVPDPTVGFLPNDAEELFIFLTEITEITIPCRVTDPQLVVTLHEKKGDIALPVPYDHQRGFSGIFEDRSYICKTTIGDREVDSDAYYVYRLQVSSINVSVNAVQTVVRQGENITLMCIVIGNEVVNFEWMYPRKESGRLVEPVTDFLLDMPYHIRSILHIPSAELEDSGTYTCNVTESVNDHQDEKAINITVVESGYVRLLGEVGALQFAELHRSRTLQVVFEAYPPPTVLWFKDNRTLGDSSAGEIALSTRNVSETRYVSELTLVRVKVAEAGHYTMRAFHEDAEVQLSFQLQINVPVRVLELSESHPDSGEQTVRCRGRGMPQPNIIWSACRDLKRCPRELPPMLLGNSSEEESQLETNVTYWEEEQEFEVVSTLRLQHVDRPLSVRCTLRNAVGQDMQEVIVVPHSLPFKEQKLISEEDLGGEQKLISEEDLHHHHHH
Briefly: SPR, mAb captured, 25 C. The protocol:
as §1

Test [5] deals with T1, hPDGFRb.mmh. Kind of test: SPR, mAb captured, 25 C. On the procedure:
as §1

Test [6] has as its target T1, hPDGFRb.mmh. Kind of test: SPR, mAb captured, 37 C. On the procedure: as §1

B1: H2M3368N (antibody, V domains shown)
VH: QVQLQQWGAGLLKPSETLSLTCAVYGGSFSGYYWTWIRQSPGKGLEWMGEISHRGTTNYNPSLKSRLTISLDTSNNHFSLKLSSVTAADTAVYYCAREERLGMGYDYFGLDVWGQGTTVTVSS
VL: EIVLTQSPATLSLSPGERATLSCRASQSVSTYLTWYQQKPGQAPRLLIYDASNRATGIPARFSGSGSGTDFTLTISSLEPEDCAVYYCQQRSIWITFGQGTRLEIK
notes: mouse Fc (H2M prefix; isotype not spelled out)
On to B1, for which, in test [1], the “IC50, blocking PDGF-BB (250 pM) activation, SRE-luciferase” value (“IC50, blocking PDGF-BB” for short) turned out to be 1.8e-10 M and the “IC50, blocking PDGF-DD (400 pM) activation, SRE-luciferase” value (“IC50, blocking PDGF-DD” below) was determined as 1.7e-10 M. In test [2], the “% Maximum Blocking” value came to 79% and the IC50 was found to be 0.13 nM. In test [3], the Kd was found to be 0.313 nM, the koff was found to be 3.7e-05 s⁻¹, the kon was found to be 118000 M⁻¹ s⁻¹ and the t1/2 was 313 min. Also, in test [4], the Kd was determined as 30 nM, the koff was 0.000185 s⁻¹, the kon was found to be 7000 M⁻¹ s⁻¹ and the t1/2 was found to be 63 min. For the same molecule, in test [5], the Kd turned out to be 7.41 nM, the koff turned out to be 0.000341 s⁻¹, the kon was found to be 46100 M⁻¹ s⁻¹ and the t1/2 is 34 min. In test [6], this molecule gave a Kd of 6.17 nM, a koff of 0.000844 s⁻¹, a kon of 137000 M⁻¹ s⁻¹ and a t1/2 of 14 min.

B2: H2M3365N (antibody, V domains shown)
VH: EVQLVESGGGLVQPGRSLRLSCAASGFTFDDFAMHWVRQVPGKGLEWVSGISWSSGTIGYVGSVKGRFTISRDNAKNSLYLQMNSLRAEDTAMYFCTKDKAAFHDAFDIWGQGTMVTVSS
VL: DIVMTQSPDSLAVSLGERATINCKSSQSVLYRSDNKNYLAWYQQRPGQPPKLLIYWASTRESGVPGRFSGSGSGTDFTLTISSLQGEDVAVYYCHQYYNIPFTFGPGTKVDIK
notes: as for B1
As for B2, in test [1], the “IC50, blocking PDGF-BB” value stood at 7.9e-09 M and the “IC50, blocking PDGF-DD” value was 1.1e-10 M. In test [2], the “% Maximum Blocking” value came out at 82% and the IC50 stood at 0.09 nM. In test [3], this molecule came in with a Kd of 0.34 nM, a koff of 8.01e-05 s⁻¹, a kon of 236000 M⁻¹ s⁻¹ and a t1/2 of 144 min. Also, in test [4], the Kd was 3.4 nM, the koff was determined as 0.000206 s⁻¹, the kon was 60000 M⁻¹ s⁻¹ and the t1/2 is 56 min. In test [5], this molecule returned a Kd of 2.79 nM, a koff of 0.000127 s⁻¹, a kon of 45400 M⁻¹ s⁻¹ and a t1/2 of 91 min. In test [6], the Kd amounted to 4.79 nM, the koff amounted to 0.000551 s⁻¹, the kon was 115000 M⁻¹ s⁻¹ and the t1/2 was 21 min.

B3: H1M3310N (antibody, mouse IgG1, V domains shown)
VH: EVQLLESGGDLVQPGGSLRLSCAASGITFSSFAMSWVRQAPGKGLEWVSTVSVSAGITYYADSVKGRFTISRDNSKNTLYLQMNSLRAEDTAIYYCAKSSCTTNSCPAYFDYWGLGTLVTVSS
VL: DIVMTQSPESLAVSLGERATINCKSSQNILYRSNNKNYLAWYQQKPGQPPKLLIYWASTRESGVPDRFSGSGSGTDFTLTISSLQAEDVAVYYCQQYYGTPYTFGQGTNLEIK
notes: mouse IgG1 Fc (H1M prefix)
As to B3, in test [1], the “IC50, blocking PDGF-BB” value turned out to be 2.3e-08 M and the “IC50, blocking PDGF-DD” value stood at 2.8e-10 M. For the same molecule, in test [2], the “% Maximum Blocking” value was 88% and the IC50 was determined as 0.12 nM. In test [3], the equilibrium dissociation constant (Kd) is at most 0.0789 nM, the koff is at most 1e-06 s⁻¹, the kon came out at 12700 M⁻¹ s⁻¹ and the t1/2 came to 11600 min. Further, in test [4], the Kd was at most 0.1 nM, the koff amounted to 1e-06 s⁻¹ and the t1/2 worked out at 11600 min. In test [5], this molecule came in with a Kd of at most 0.07 nM, a koff of at most 1e-06 s⁻¹, a kon of 14000 M⁻¹ s⁻¹ and a t1/2 of 11600 min. In test [6], this molecule showed a Kd of 1.83 nM, a koff of 6.46e-05 s⁻¹, a kon of 35300 M⁻¹ s⁻¹ and a t1/2 of 179 min.

B4: H1M3361N (antibody, mouse IgG1, V domains shown)
VH: EVQLVESGGGLVQPGGSLRLSCAASGFTFSSYWMTWVRQAPGKGLEWVANIRQDGSDKYYVDSVKGRFTISRDNAKNSLFLQMNSLRAEDTAVYYCARTNGGTYGYNHYYYGMDVWGQGTTVTVSS
VL: DIQMTQSPSSLSASVGDRVTITCRASQGIRNDLGWYQLKPGKAPKRLIFAASSLQSGVPSRFSGSGSGTEFTLTISSLQPEDFATYYCLQHNSYPWTFGQGTKVEIK
notes: mouse IgG1 Fc (H1M prefix)
In the case of B4, in test [1], the “IC50, blocking PDGF-BB” value was 6.8e-09 M and the “IC50, blocking PDGF-DD” value came out at 8.4e-11 M. In test [2], the “% Maximum Blocking” value amounted to 76% and the IC50 stood at 0.1 nM. In test [3], the Kd is at most 0.0765 nM, the koff was at most 1e-06 s⁻¹, the kon was found to be 13100 M⁻¹ s⁻¹ and the t1/2 came out at 11600 min. Moreover, in test [4], the Kd is 3.9 nM, the dissociation rate constant (koff) worked out at 3.89e-05 s⁻¹, the on-rate (kon) was determined as 10000 M⁻¹ s⁻¹ and the t1/2 was 297 min. In test [5], this molecule showed a Kd of 7.29 nM, a koff of 0.00126 s⁻¹, a kon of 173000 M⁻¹ s⁻¹ and a t1/2 of 9 min. Also, in test [6], the Kd turned out to be 27.4 nM, the koff worked out at 0.00833 s⁻¹, the on-rate (kon) is 304000 M⁻¹ s⁻¹ and the t1/2 worked out at 1.4 min.

B5: H2M3363N (antibody, V domains shown)
VH: QVQVQESGPGLVKPSETLSLTCTVSGDSISSSSYYWGWIRQPPGKGLEWIGSIYYNGISSYNPSLKSRVTISVESSKNQFSLRLASVTAADTALYYCARHRAARRFSEAFDIWGQGTMVTVSS
VL: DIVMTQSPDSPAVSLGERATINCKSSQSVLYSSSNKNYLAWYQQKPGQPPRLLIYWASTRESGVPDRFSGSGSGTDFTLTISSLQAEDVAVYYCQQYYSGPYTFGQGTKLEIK
notes: as for B1
Turning to B5, in test [1], the “IC50, blocking PDGF-BB” value is 7.5e-09 M and the “IC50, blocking PDGF-DD” value is 1.9e-10 M. Moreover, in test [2], the “% Maximum Blocking” value was found to be 77% and half-maximal inhibition (IC50) was put at 4.1 nM. In test [3], this molecule displayed a Kd of 0.0386 nM, a koff of 4.03e-06 s⁻¹, a kon of 104000 M⁻¹ s⁻¹ and a t1/2 of 2870 min. In test [4], this molecule returned a Kd of 1.4 nM, a koff of 6.85e-05 s⁻¹, a kon of 50000 M⁻¹ s⁻¹ and a t1/2 of 169 min. Further, in test [5], the Kd turned out to be 46.8 nM, the koff turned out to be 0.00333 s⁻¹, the kon was found to be 71100 M⁻¹ s⁻¹ and the t1/2 was 3 min. In test [6], this molecule gave a Kd of 17.6 nM, a koff of 0.00503 s⁻¹, a kon of 286000 M⁻¹ s⁻¹ and a t1/2 of 2 min.

B6: H2M3373N (antibody, V domains shown)
VH: EVQLRDSGGGLVQPGGSLRLSCVASGFTFSSYWMSWVRQAPGKGLEWVVNINRDGSEKYYVDSVKGRFIISRDNTKNSLYLQMESLRAEDTAVYYCARDPPYHLYGMDVWGQGTTVTVSS
VL: DIQMTQSPSSLSASVGDRVTITCRTSQGIRVDLAWYQQKPGKAPERLIYAASSLQSGVPSRFSGGGSGTEFTLTVSSLQPEDFATYYCLQHHNFPYTFGQGTKLEIK
notes: as for B1
With B6, in test [1], the “IC50, blocking PDGF-BB” value worked out at 7e-11 M and the “IC50, blocking PDGF-DD” value amounted to 9.2e-11 M. For the same molecule, in test [2], the “% Maximum Blocking” value was determined as 80% and half-maximal inhibition (IC50) required 0.9 nM. In test [3], this molecule showed a Kd of 0.507 nM, a koff of 0.00024 s⁻¹, a kon of 473000 M⁻¹ s⁻¹ and a t1/2 of 48 min. Also, in test [4], the Kd is 18.3 nM, the koff is 0.00238 s⁻¹, the kon amounted to 130000 M⁻¹ s⁻¹ and the t1/2 worked out at 5 min. In test [5], this molecule registered a Kd of 12.4 nM, a koff of 0.00235 s⁻¹, a kon of 189000 M⁻¹ s⁻¹ and a t1/2 of 5 min. In test [6], this molecule showed a Kd of 29.8 nM, a koff of 0.0122 s⁻¹, a kon of 410000 M⁻¹ s⁻¹ and a t1/2 of 0.9 min.
